From paper PMC4110038, “The CD27L and CTP1L Endolysins Targeting Clostridia Contain a Built-in Trigger and Release Factor” (PLoS Pathogens, 2014)
Where a chain is given by its changes, count along the chain named. In names and notes the source's numbering stands.

B1: Proteolytic fragment of CD27L (C-terminal domain released by autocleavage at M186) (domain or fragment, bacteriophage ΦCD27, UniProt B6SBV8 186-270, looked up)
chain: MYKHTIVYDGEVDKISATVVGWGYNDGKILICDIKDYVPGQTQNLYVVGGGACEKISSITKEKFIMIKGNDRFDTLYKALDFINR
notes: CD27L endolysin of bacteriophage ΦCD27, autoproteolytic C-terminal fragment; N-terminal residue identified as M186 by LC-MS; the protein ends at 270 by the construct name CD27L180-270; About 10 kDa; The N-terminal His tag of the parent stays on the catalytic domain; also called CD27L proteolytic fragment; C-terminal domain of CD27L; source: autoproteolytic product of full-length CD27L made in E. …
B2: CD27L endolysin C238R mutant, full length (enzyme, bacteriophage ΦCD27, UniProt B6SBV8 1-270, looked up)
chain: MKICITVGHSILKSGACTSADGVVNEYQYNKSLAPVLADTFRKEGHKVDVIICPEKQFKTKNEEKSYKIPRVNSGGYDLLIELHLNASNGQGKGSEVLYYSNKGLEYATRICDKLGTVFKNRGAKLDKRLYILNSSKPTAVLIESFFCDNKEDYDKAKKLGHEGIAKLIVEGVLNKNINNEGVKQMYKHTIVYDGEVDKISATVVGWGYNDGKILICDIKDYVPGQTQNLYVVGGGAREKISSITKEKFIMIKGNDRFDTLYKALDFINR
notes: CD27L endolysin of bacteriophage ΦCD27, made by site-directed mutagenesis of pET15b-cd27l; Side-by-side dimer interface mutant; also called CD27L (C238R); CD27L C239R (as printed in the SEC-RALS methods); source: E. coli BL21(DE3), purified as wild-type CD27L (Ni-NTA, SEC); not shown: His tag, N-terminal, kept
B3: CD27L endolysin, full length, wild type (enzyme, bacteriophage ΦCD27, UniProt B6SBV8 1-270, looked up)
chain: B2 chain with R238C
notes: CD27L endolysin of bacteriophage ΦCD27 (N-acetylmuramoyl-L-alanine amidase domain, linker, C-terminal domain); 270 residues by the construct name CD27L180-270; in pET15b with an N-terminal His tag and a thrombin site; Undergoes continuous autocleavage at M186, so samples also hold the catalytic domain and the C-terminal fragment; also called CD27L (wild-type); recombinant CD27L endolysin; source: …
B4: CD27L endolysin M186P mutant, full length (enzyme, bacteriophage ΦCD27, UniProt B6SBV8 1-270, looked up)
chain: B2 chain with M186P, R238C
notes: CD27L endolysin of bacteriophage ΦCD27, made by site-directed mutagenesis of pET15b-cd27l; Cleavage-site mutant; autocleavage abolished; tends to aggregate; also called CD27L M186P; source: E. coli BL21(DE3), purified as wild-type CD27L (Ni-NTA, SEC)

Columns and labels:
[1] = target: CTP1L endolysin, full length, wild type (bacteriophage that targets C. tyrobutyricum (phage not named)); test: SEC-RALS/RI/UV (size exclusion chromatography with right-angle light scattering); S75 10/300 GL column, 20 mM HEPES pH 7.4, 500 mM NaCl, room temperature, 75 µL injected at 6.37, 7.15 and 6.17 mg/mL, 0.4 mL/min
[2] = target: the molecule itself; test: crystal structure; crystals grown from full-length CD27L that held only the proteolytic C-terminal fragment; six copies in the asymmetric unit; 10-20% PEG 4000, 20 mM Tris pH 8.0; space group P212121
[3] = target: B3; test: SEC-RALS/RI/UV (size exclusion chromatography with right-angle light scattering); S75 10/300 GL column, 20 mM HEPES pH 7.4, 500 mM NaCl, room temperature, 75 µL injected at 6.37, 7.15 and 6.17 mg/mL, 0.4 mL/min; conditions: both partners purified
[4] = target: the molecule itself; test: SAXS; CD27L C238R, 10°C, 20 mM Tris, 500 mM NaCl pH 7.4, 1.0-8.5 mg/mL; volume fractions by OLIGOMER on merged data
[5] = target: the molecule itself; test: SEC-RALS/RI/UV (size exclusion chromatography with right-angle light scattering); S75 10/300 GL column, 20 mM HEPES pH 7.4, 500 mM NaCl, room temperature, 75 µL injected at 6.37, 7.15 and 6.17 mg/mL, 0.4 mL/min

## CTP1L endolysin, full length, wild type (enzyme)
[1]
  stoichiometry N: 2

## B1
[2]
  binding result: binds
[3]
  binding result: binds

## B2
[4]
  stoichiometry N: 2

## B3
[5]
  stoichiometry N: 2

## B4
[5]
  stoichiometry N: 2
